# Laboratory results reported in patent publication US20070032403A1, “Crystal structure of the ITK kinase domain” (Boehringer Ingelheim Pharmaceuticals, Inc., priority 2003, published 2007).
# Key:
# [1] = biological target: T1, GST-ITK/KD/G354 (wild-type ITK kinase domain) (Homo sapiens, UniProt Q08881); experiment: Tec Family Kinase Assay (DELFIA), wild-type ITK kinase domain; format: biochemical; settings: 15 μM ATP substrate mix
# T1 construct: made in house; host or cells: Spodoptera frugiperda Sf21 cells, baculovirus
# T1 sequence (Q08881 with tags, fused parts or gaps): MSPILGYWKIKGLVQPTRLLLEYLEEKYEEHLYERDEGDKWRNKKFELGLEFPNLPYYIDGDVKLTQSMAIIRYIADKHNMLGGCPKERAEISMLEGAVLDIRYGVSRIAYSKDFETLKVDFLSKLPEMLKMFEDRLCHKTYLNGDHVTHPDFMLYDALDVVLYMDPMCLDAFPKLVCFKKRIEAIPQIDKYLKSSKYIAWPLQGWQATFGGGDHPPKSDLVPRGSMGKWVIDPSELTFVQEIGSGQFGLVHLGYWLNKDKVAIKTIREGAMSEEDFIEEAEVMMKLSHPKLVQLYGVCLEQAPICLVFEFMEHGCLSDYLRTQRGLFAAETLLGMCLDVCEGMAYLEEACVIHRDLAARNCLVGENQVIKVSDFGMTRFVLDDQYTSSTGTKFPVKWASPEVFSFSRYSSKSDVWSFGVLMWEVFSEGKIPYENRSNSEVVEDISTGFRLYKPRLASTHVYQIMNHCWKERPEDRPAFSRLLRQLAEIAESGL
# [2] = biological target: T2, GST-ITK/KD/G354/F437Y (ITK F437Y) (Homo sapiens, UniProt Q08881, F437Y); experiment: Tec Family Kinase Assay (DELFIA), F437Y mutant ITK kinase domain; format: biochemical; settings: for IC50: GST-ITK/KD/G354/F437Y mutant; for Fold Difference in IC50: ITK F437Y IC50 versus wild-type ITK IC50
# T2 construct: made in house; host or cells: Spodoptera frugiperda Sf21 cells, baculovirus
# T2 sequence (Q08881 with tags, fused parts or gaps F437Y): as the sequence (Q08881 with tags, fused parts or gaps) above, with F311Y counted along it
# poly Glu4: Tyr1 (PGTYR) = experiment: Catalytic activity of ITK kinase domain constructs (kinase assay); format: biochemical; settings: for Kinase Activity: Using 250 nM enzyme; for catalytic activity (in words): human ITK kinase domain fragments
# Method: ITK is purified as a GST-fusion protein to test for catalytic activity. The kinase activity is measured using DELFIA (Dissociation Enhanced Lanthanide Fluoroimmunoassay) which utilizes europium chelate-labeled anti-phosphotyrosine antibodies to detect phosphate transfer to a random polymer, poly Glu4: Tyr1 (PGTYR). The screen utilizes the Zymark Allegro UHTS system to dispense reagents, buffers and samples for assay, and also to wash plates. The kinase assay is performed in kinase assay buffer (50 mM HEPES, pH 7.0, 25 mM MgCl2, 5 mM MnCl2, 50 mM KCl, 100 μM Na3VO4, 0.2% BSA, 0.01% CHAPS, 200 μM TCEP). Test samples initially dissolved in DMSO at 1 mg/mL, are pre-diluted for dose response (9 doses with starting final concentration of 3 μg/mL, 1 to 3 serial dilutions) with the assay buffer in 384-well polypropylene microtiter plates. […] Background wells are incubated with buffer, rather than 20 μL enzyme. The assay plates are incubated for 30 min at room temperature. Following incubation, the assay plates are washed three times with 100 μL wash buffer (50 mM Tris-HCL, pH 7.4, 150 mM NaCl, 0.05% Tween 20, 0.2% BSA). A 50 μL aliquot of europium-labeled anti-phosphotyrosine (Eu^3+-PT66, Wallac CR04-100) diluted in 50 mM Tris-HCl, pH 7.8, 150 mM NaCl, 10 μM DTPA, 0.05% Tween 40, 0.2% BSA, 0.05% BGG (1 nM final concentration) is added to each well and incubated for 30 min at room temperature. Upon completion of the incubation, the plate is washed four times with 100 μL of wash buffer and 50 μL of DELFIA Enhancement Solution (Wallac) is added to each well. After 15 min, time-resolved fluorescence is measured on the LJL's Analyst (excitation at 360 nm, emission at 620 nm, EU 400 Dichroic Mirror) after a delay time of 250 μs. An IC50 can be obtained by fitting the rates vs. compound/ligand concentration data into a simple competitive inhibitor model. Under these assay conditions, a 3-fold difference in compound potency (IC50) is considered within the variation of the assay. Preferred ligands will have an IC50<1000 nM.
# A significant obstacle in the process of obtaining the 3-dimensional structure of a protein by X-ray crystallography is the identification of a protein fragment that is amenable to the formation of protein crystals of suitable quality. Since kinases often have multiple domains, one strategy that increases the likelihood of generating protein crystals of the kinase domain (catalytic) fragment has been to delete the other domains. Furthermore, by making a kinase domain fragment analogous to that of a related kinase for which a crystal structure has been determined, one may further increase the probability of generating suitable protein crystals. Using these concepts, the human ITK/KD/Q343 construct was generated. Theory predicts that a more compactly folded protein has a greater probability of producing high quality protein crystals. Therefore, the human ITK/KD/Q343 construct was subjected to limited proteolysis with trypsin to identify any fragments of the construct that are easily accessible to the protease and are thus likely to be less compactly folded. Using this strategy, the human ITK/KD/G354 and ITK/KD/S361 constructs were designed. To prioritize the three human ITK kinase domain protein fragments for crystallization trials, each was assayed for catalytic activity and for structural foldedness by circular dichroism-monitored thermal denaturation. […] Consequently, the ITK/KD/G354 construct was prioritized for structural studies since it was catalytically active and predicted to be tightly folded. To further increase the probability of obtaining suitable crystals, a murine construct (ITK/KD/G353) analogous to the human ITK/KD/G354 construct was generated. […]
# [3] = Thermal denaturation of ITK constructs (circular dichroism-monitored); format: physicochemical; settings: for Tm: 5 μM construct, pH 7.0 buffer, 230 nm, 2 to 100° C. at 0.2° C./min; for Tm comparison (in words): thermal denaturation studies
# Method: Thermal denaturation experiments were performed on a Jasco J-720 spectropolarimeter equipped with a Peltier thermostatic cell holder. For each measurement, a 1 cm quartz cuvette was loaded with 5 μM ITK kinase domain construct in a pH 7.0 buffer containing 10 mM sodium phosphate, 100 mM NaCl and 1 mM TCEP. Absorbance data at 230 nm was collected as the temperature was scanned from 2 to 100° C. at a ramp rate of 0.2° C./min. The melting temperature (Tm) for each sample was calculated as the maximum deflection point of the first derivative of the melting transition using Origin (version 7.0).
# A significant obstacle in the process of obtaining the 3-dimensional structure of a protein by X-ray crystallography is the identification of a protein fragment that is amenable to the formation of protein crystals of suitable quality. Since kinases often have multiple domains, one strategy that increases the likelihood of generating protein crystals of the kinase domain (catalytic) fragment has been to delete the other domains. Furthermore, by making a kinase domain fragment analogous to that of a related kinase for which a crystal structure has been determined, one may further increase the probability of generating suitable protein crystals. Using these concepts, the human ITK/KD/Q343 construct was generated. Theory predicts that a more compactly folded protein has a greater probability of producing high quality protein crystals. Therefore, the human ITK/KD/Q343 construct was subjected to limited proteolysis with trypsin to identify any fragments of the construct that are easily accessible to the protease and are thus likely to be less compactly folded. Using this strategy, the human ITK/KD/G354 and ITK/KD/S361 constructs were designed. To prioritize the three human ITK kinase domain protein fragments for crystallization trials, each was assayed for catalytic activity and for structural foldedness by circular dichroism-monitored thermal denaturation. […] Consequently, the ITK/KD/G354 construct was prioritized for structural studies since it was catalytically active and predicted to be tightly folded. To further increase the probability of obtaining suitable crystals, a murine construct (ITK/KD/G353) analogous to the human ITK/KD/G354 construct was generated. This murine ITK kinase domain construct has 3 conservative and 7 non-conservative amino acid substitutions when compared with the human ITK/KD/G354 construct which may alter the conformation or surface properties of the protein thus providing alternative opportunities for crystal formation.
IC50 [1],IC50 [2],Fold Difference in IC50 [2],Molecule,Kinase Activity (poly Glu4: Tyr1 (PGTYR)),catalytic activity (in words) (poly Glu4: Tyr1 (PGTYR)),Tm [3],Tm comparison (in words) [3]
460 nM,1200 nM,2.6,CNc1ccc2c(c1)nc(NC(=O)c1ccc(C#N)cc1)n2CCC(N)=O [Compound 1],–,–,–,–
440 nM,500 nM,1.1,Cc1ccc2c(c1)nc(NC(=O)c1ccc(C#N)cc1)n2CCC(N)=O [Compound 3],–,–,–,–
15 nM,160 nM,10.7,CN(C(=O)C1CCCCC1)c1ccc2c(c1)nc(NC(=O)c1ccc(C#N)cc1)n2CCCN1CCCC1=O [Compound 7],–,–,–,–

# More lines, now with the values behind:
Molecule,IC50 [1],IC50 [2],Fold Difference in IC50 [2],Kinase Activity (poly Glu4: Tyr1 (PGTYR)),catalytic activity (in words) (poly Glu4: Tyr1 (PGTYR)),Tm [3],Tm comparison (in words) [3]
"ITK/KD/Q343: human ITK kinase domain fragment comprising ITK residues 343-620 (SEQ ID NO. 9) (protein, listed as Homo sapiens) GSMQKAPVTAGLRYGKWVIDPSELTFVQEIGSGQFGLVHLGYWLNKDKVAIKTIREGAMSEEDFIEEAEVMMKLSHPKLVQLYGVCLEQAPICLVFEFMEHGCLSDYLRTQRGLFAAETLLGMCLDVCEGMAYLEEACVIHRDLAARNCLVGENQVIKVSDFGMTRFVLDDQYTSSTGTKFPVKWASPEVFSFSRYSSKSDVWSFGVLMWEVFSEGKIPYENRSNSEVVEDISTGFRLYKPRLASTHVYQIMNHCWKERPEDRPAFSRLLRQLAEIAESGL",–,–,–,2000 Fluorescent Units,showed significant catalytic activity,50.0 °C,–
"ITK/KD/G354: human ITK kinase domain fragment comprising ITK residues 354-620 (SEQ ID NO. 1) (protein, listed as Homo sapiens) GSMGKWVIDPSELTFVQEIGSGQFGLVHLGYWLNKDKVAIKTIREGAMSEEDFIEEAEVMMKLSHPKLVQLYGVCLEQAPICLVFEFMEHGCLSDYLRTQRGLFAAETLLGMCLDVCEGMAYLEEACVIHRDLAARNCLVGENQVIKVSDFGMTRFVLDDQYTSSTGTKFPVKWASPEVFSFSRYSSKSDVWSFGVLMWEVFSEGKIPYENRSNSEVVEDISTGFRLYKPRLASTHVYQIMNHCWKERPEDRPAFSRLLRQLAEIAESGL",–,–,–,910 Fluorescent Units,showed significant catalytic activity,67.2 °C,higher Tm than ITK/KD/Q343
"ITK/KD/S361: human ITK kinase domain fragment comprising ITK residues 361-620 (SEQ ID NO. 12) (protein, listed as Homo sapiens) GSMSELTFVQEIGSGQFGLVHLGYWLNKDKVAIKTIREGAMSEEDFIEEAEVMMKLSHPKLVQLYGVCLEQAPICLVFEFMEHGCLSDYLRTQRGLFAAETLLGMCLDVCEGMAYLEEACVIHRDLAARNCLVGENQVIKVSDFGMTRFVLDDQYTSSTGTKFPVKWASPEVFSFSRYSSKSDVWSFGVLMWEVFSEGKIPYENRSNSEVVEDISTGFRLYKPRLASTHVYQIMNHCWKERPEDRPAFSRLLRQLAEIAESGL",–,–,–,30 Fluorescent Units,did not possess activity above background levels,72.8 °C,highest Tm
